This is an account of results in publication PMC5290946.

The assay deals with His-MxiC(C184A/C233S/A247C/S290C), labelled with MTSL (Shigella flexneri) (UniProt Q04640). Kind of assay: continuous wave EPR; X-band, room temperature; MTSL-labelled His-MxiC(Cys) at ~75 μM with a 10-fold (~750 μM) or n-fold excess of the unlabelled partner, in 20 mM Tris-HCl pH 7.5, 100 mM NaCl; binding read from the change of the spin labels' spectrum; KD estimated from the molar ratio that gives half of the maximal change.

As for “His6-IpaD(15-332) C322S (from UniProt P18013 15-332) (domain or fragment)”, the Kd was 730 µM.

By Kd is commonly meant a measure of binding affinity in units of concentration.
